{
  "source": "paper PMC10836841",
  "molecular_target": "PhiKo endolysin (Thermus thermophilus HB27 bacteriophage phiKo)",
  "assay": "AUC; sedimentation velocity, 50,000 rpm, 4°C, 20 mM MES, 150 mM NaCl, pH 6.0, in the absence or presence of 20 mM DPC detergent; PhiKo endolysin 1.2 mg/mL; continuous c(s) distribution (SEDFIT); monomer to dimer",
  "data": [
    {"substance": "PhiKo endolysin (enzyme)", "values": [
      {"measurement": "percent of the signal in the dimer peak (with 20 mM DPC)", "result": 15, "unit": "%"},
      {"measurement": "percent of the signal in the dimer peak (without DPC)", "result": 2.3, "unit": "%"},
      {"measurement": "stoichiometry N", "result": 2}
    ]}
  ]
}
